Results reported in patent US20040151715A1 (SCHERING, published 2004).

Assays:
[1] = target: T1, human ADAM33 catalytic domain (human, UniProt Q9BZ11 204-409); assay: co-purification during chromatography; heterodimer not disrupted by APMA and/or detergents
T1 construct: Expressed in Drosophila S2 cells as pre/pro/cat with a C-terminal Ser-Gly-His6 tag and processed at RGRR203/EARR; also called CAT domain; protease domain
T1 sequence: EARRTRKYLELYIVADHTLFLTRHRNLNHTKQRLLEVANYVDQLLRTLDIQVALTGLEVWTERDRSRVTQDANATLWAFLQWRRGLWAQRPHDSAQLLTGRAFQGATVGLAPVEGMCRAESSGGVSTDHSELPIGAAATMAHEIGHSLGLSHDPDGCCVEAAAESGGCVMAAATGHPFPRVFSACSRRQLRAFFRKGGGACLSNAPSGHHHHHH

APP peptide (YEVHHQKLVF) = target: T2, APP peptide (YEVHHQKLVF)
T2 chain: YEVHHQKLVF

[2] = target: T3, insulin B chain peptide (HLVEALYLVC)
T3 chain: HLVEALYLVC

[3] = target: T4, human ADAM33 pro domain (wild type)
T4 chain: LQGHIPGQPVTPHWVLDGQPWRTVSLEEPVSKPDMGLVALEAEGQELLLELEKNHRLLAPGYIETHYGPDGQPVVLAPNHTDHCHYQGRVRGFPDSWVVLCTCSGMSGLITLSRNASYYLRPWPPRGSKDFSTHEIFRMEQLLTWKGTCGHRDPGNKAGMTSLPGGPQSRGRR

[4] = target: T5, MCF substrate peptide (Ac-LPPVAASSLNRD-NH2)
T5 chain: LPPVAASSLNRD

[5] = target: T6, TRANCE peptide (VGSQHIRAEK)
T6 chain: VGSQHIRAEK

[6] = target: T7, KL-1 peptide (PPVAASSLRN)
T7 chain: PPVAASSLRN

[7] = target: T1, human ADAM33 catalytic domain; assay: HPLC assay of KL-1 peptide (100 µM) cleavage by ADAM33cat (80 nM), TIMP pre-incubated 1 h at RT; competitive inhibition fit
Protocol: (§1) The inhibition dissociation constants (Kᵢ) for inhibitors were determined as follows: an HPLC assay was performed in the presence or absence of inhibitors for 2 h at RT using ADAM33cat (80 nM) and KL-1 peptide substrate (100 μM). For testing tissue inhibitor of metalloproteinases (TIMPs), ADAM33 and human TIMPs were pre-incubated for 1 h at RT. Serial dilutions of TIMPs or synthetic inhibitors were tested starting at 4 μM (TIMP-2, -3, 4), 2 μM (TIMP-1, IK682), 20 μM (Marimastat), or 200 μM (Immunex compound 1: N-{DL-[2-(hydroxyamino-carbonyl)methyl]4-methylpentanoyl}-L-3-(tertbutyl)glycyl-L-alanine,2-aminoethylamide). Initial velocities were calculated by dividing cleaved product over reaction time. The initial velocities were plotted as a function of inhibitor concentration. For tight binding inhibitors (IK682, TIMP-3), the apparent inhibitor dissociation constants (Kᵢ app values) were calculated by fitting the curve to the following modified Morrison's equation: […]
(§2) The cleavage of the KL-1 peptide by ADAM33 was used to evaluate the effect of different classes of protease inhibitors. Inhibition constants of several hydroxamate compounds, known to inhibit either ADAM17 [IK682, and the Immunex compound 1] or MMPs [Marimastat], were determined. […] Human TIMP-1, -2, -3 and -4, endogenous inhibitors of MMPs and ADAMs, were tested for inhibition of ADAM33 activity.

[8] = target: T1, human ADAM33 catalytic domain; assay: HPLC assay of KL-1 peptide (100 µM) cleavage by ADAM33cat (80 nM), TIMP pre-incubated 1 h at RT; Morrison tight-binding fit (Ki app)
Protocol: as §1, §2

B1: human ADAM33 pro domain C131A (other)
chain: LQGHIPGQPVTPHWVLDGQPWRTVSLEEPVSKPDMGLVALEAEGQELLLELEKNHRLLAPGYIETHYGPDGQPVVLAPNHTDHCHYQGRVRGFPDSWVVLATCSGMSGLITLSRNASYYLRPWPPRGSKDFSTHEIFRMEQLLTWKGTCGHRDPGNKAGMTSLPGGPQSRGRR
notes: The whole pro/cat entry is named; The protein was processed at the pro-CAT junction, so only the part before EARR is the pro domain
percent of protease domain associated with the pro domain [1]: > 80%

B2: human ADAM33 pro domain C131A/C179A (other)
chain: LQGHIPGQPVTPHWVLDGQPWRTVSLEEPVSKPDMGLVALEAEGQELLLELEKNHRLLAPGYIETHYGPDGQPVVLAPNHTDHCHYQGRVRGFPDSWVVLATCSGMSGLITLSRNASYYLRPWPPRGSKDFSTHEIFRMEQLLTWKGTAGHRDPGNKAGMTSLPGGPQSRGRR
notes: as for B1
percent of protease domain associated with the pro domain [1]: > 80%

B3: human ADAM33 pro domain C179A (other)
chain: LQGHIPGQPVTPHWVLDGQPWRTVSLEEPVSKPDMGLVALEAEGQELLLELEKNHRLLAPGYIETHYGPDGQPVVLAPNHTDHCHYQGRVRGFPDSWVVLCTCSGMSGLITLSRNASYYLRPWPPRGSKDFSTHEIFRMEQLLTWKGTAGHRDPGNKAGMTSLPGGPQSRGRR
notes: as for B1
percent of protease domain associated with the pro domain [1]: > 80%

B4: human ADAM33 catalytic domain (protein)
chain: EARRTRKYLELYIVADHTLFLTRHRNLNHTKQRLLEVANYVDQLLRTLDIQVALTGLEVWTERDRSRVTQDANATLWAFLQWRRGLWAQRPHDSAQLLTGRAFQGATVGLAPVEGMCRAESSGGVSTDHSELPIGAAATMAHEIGHSLGLSHDPDGCCVEAAAESGGCVMAAATGHPFPRVFSACSRRQLRAFFRKGGGACLSNAPSGHHHHHH
Km (APP peptide (YEVHHQKLVF)): 1000 ± 100 µM | kcat (APP peptide (YEVHHQKLVF)): 0.2 ± 0.1 s⁻¹ | kcat/Km (APP peptide (YEVHHQKLVF)): (1.6±0.3)×10^2 M^-1 s^-1 (n=2) | peptide cleavage (HPLC; site by MALDI-TOF MS) (APP peptide (YEVHHQKLVF)): ADAM33 cleaved the APP peptide at H * Q | peptide cleavage (HPLC; site by MALDI-TOF MS) [2]: ADAM33 cleaved the ... insulin B chain peptide at A * L | catalytic efficiency of the pro/CAT complex on the MCF peptide, tested at 50 nM-1 µM [3]: comparable to that of the CAT domain | Km [4]: suggesting a Km value greater than the highest tested concentration (500 µM) | catalytic efficiency (kcat/Km) [4]: 2.6±0.5)×10^2 M^-1 s^-1 | peptide cleavage (HPLC) [4]: The wild-type ADAM33 cleaved the peptide between the residues corresponding to Ala-190 and Ser-191 | peptide cleavage (HPLC; site by MALDI-TOF MS) [5]: ADAM33 cleaved the ... human TRANCE peptide at H * I | Km [6]: 3000 ± 100 µM | kcat [6]: 0.7 ± 0.1 s⁻¹ | kcat/Km [6]: (2.6±0.5)×10^2 M^-1 s^-1 (n=3) | peptide cleavage (HPLC; site by MALDI-TOF MS) [6]: ADAM33 cleaved the ... KL-1 peptide at A * S

B5: human TIMP-4 (tissue inhibitor of metalloproteinases 4) (other, UniProt Q99727 30-224, looked up)
chain: CSCAPAHPQQHICHSALVIRAKISSEKVVPASADPADTEKMLRYEIKQIKMFKGFEKVKDVQYIYTPFDSSLCGVKLEANSQKQYLLTGQVLSDGKVFIHLCNYIEPWEDLSLVQRESLNHHYHLNCGCQITTCYTVPCTISAPNECLWTDWLLERKLYGYQAQHYVCMKHVDGTCSWYRGHLPLRKEFVDIVQP
Ki [7]: 223 nM

B6: human TIMP-3 (tissue inhibitor of metalloproteinases 3) (other, UniProt P35625 24-211, looked up)
chain: CTCSPSHPQDAFCNSDIVIRAKVVGKKLVKEGPFGTLVYTIKQMKMYRGFTKMPHVQYIHTEASESLCGLKLEVNKYQYLLTGRVYDGKMYTGLCNFVERWDQLTLSQRKGLNYRYHLGCNCKIKSCYYLPCFVTSKNECLWTDMLSNFGYPGYQSKHYACIRQKGGYCSWYRGWAPPDKSIINATDP
Ki [8]: 64 nM

B7: single chain zymogen form of ADAM33 (R203T/R207S) (protein)
chain: LQGHIPGQPVTPHWVLDGQPWRTVSLEEPVSKPDMGLVALEAEGQELLLELEKNHRLLAPGYIETHYGPDGQPVVLAPNHTDHCHYQGRVRGFPDSWVVLCTCSGMSGLITLSRNASYYLRPWPPRGSKDFSTHEIFRMEQLLTWKGTCGHRDPGNKAGMTSLPGGPQSRGRTEARSTRKYLELYIVADHTLFLTRHRNLNHTKQRLLEVANYVDQLLRTLDIQVALTGLEVWTERDRSRVTQDANATLWAFLQWRRGLWAQRPHDSAQLLTGRAFQGATVGLAPVEGMCRAESSGGVSTDHSELPIGAAATMAHEIGHSLGLSHDPDGCCVEAAAESGGCVMAAATGHPFPRVFSACSRRQLRAFFRKGGGACLSNAP
catalytic efficiency on the MCF peptide [4]: showed no significant difference to that of the CAT domain
